Data taken from patent publication US20240043529A1, “METHODS AND COMPOSITIONS RELATED TO BCL2 AND BIM HETERODIMER ANTIBODIES” (Eutropics Pharmaceuticals, Inc., priority 2020, published 2024).
Positions count from the first letter of the chain named.

B1: HSB2B clone 28A9D11 (antibody, V domains shown)
VH: DVQLQESGPGLVKPSQSLSLTCSVTGYSITSGYYWNWIRQFPGNKLEWMGYISYDGSNNYNPSLKNRISITRDTSKNQFFLKLNSVTTEDTATYYCARDGTTVVATLAYWGQGTLVTVSA
VL: QIVLTQSPAIMSASPGEKVTISCSASSSVSYMYWYQQKPGSSPKPWIYRTSNLASGVPARFSGSGSGTSYSLTISSMEAEDAATYYCQQYHSYPPTFGAGTKLELK
notes: Mouse IgG, tested as hybridoma supernatant
B2: 28A9: mouse IgG monoclonal antibody specific for the Bc12:Bim heterodimer; Hv SEQ ID NO: 17, Lv SEQ ID NO: 21 (antibody, V domains shown)
VH: B1 VH
VL: B1 VL
B3: HSB2B clone 10C10F7 (antibody, V domains shown)
VH: QVQLQQPGAELVKPGASVKLSCKASGYTFTSYWMHWVKQRPGRGLEWIGRIDPNSGGTKSNEKFNNKATLTVDKSSSTAYMQLSSLTSEDSAVYYCARWWDYDYFDYWGQGTTLTVSS
VL: DIVMTQSPSSLTVTAGEKVTMSCKSSQSLLNSGNQKNYLTWYQQKPGQPPKLLIYWASTRESGVPDRFTGSGSGTDFTLTISNVQAEDLAVYYCQNDYNYPLTFGAGTKLELK
notes: Mouse IgG, tested as hybridoma supernatant; also called HSB2B mAb 10C10
B4: 10C10: mouse IgG monoclonal antibody specific for the Bc12:Bim heterodimer; Hv SEQ ID NO: 1, Lv SEQ ID NO: 5 (antibody, V domains shown)
VH: B3 VH
VL: B3 VL
B5: 2H3: mouse IgG monoclonal antibody specific for the Bc12:Bim heterodimer; Hv SEQ ID NO: 25, Lv SEQ ID NO: 29 (antibody, V domains shown)
VH: B3 VH with A16T, K23Q, T30A, S60Y, N65K, N66S, A68V, S75P, T78A
VL: B3 VL with N37R, N83S, A106S
B6: HSB2B clone 2H3G7 (antibody, V domains shown)
VH: B3 VH with A16T, K23Q, T30A, S60Y, N65K, N66S, A68V, S75P, T78A
VL: B3 VL with N37R, N83S, A106S
notes: Mouse IgG, tested as hybridoma supernatant; also called HSB2B mAb 2H3

Assays:
[1] = biological target: T1, GST_Bc1xL (Bc1xL monomer) (human, UniProt Q07817 1-209); assay: ELISA, serially diluted hybridoma supernatant on glutathione plates
T1 construct: also called BclxL monomer; not shown: GST (glutathione S-transferase) fused at the N-terminus
T1 sequence (Q07817 1-209): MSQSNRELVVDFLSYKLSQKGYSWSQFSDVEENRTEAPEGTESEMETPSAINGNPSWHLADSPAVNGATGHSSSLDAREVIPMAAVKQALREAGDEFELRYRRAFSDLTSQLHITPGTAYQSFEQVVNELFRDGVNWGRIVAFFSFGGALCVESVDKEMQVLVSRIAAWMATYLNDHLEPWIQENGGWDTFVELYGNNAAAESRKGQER
Protocol: (§1) This class of heterodimer specific Bc12:Bim reactive monoclonal antibodies are otherwise known as “HSB2B”. […] As controls, reactivity with Bc1xL:Bim, Bc12 and Bc1xL monomers, and bovine serum albumin (BSA) were also screened against. To adhere the Bc1xL and Bc12 to the plates, each was expressed as a recombinant fusion protein with GST at the N-terminus (i.e. GST_Bc12 and GST_Bc1xL). Once adhered to the plate, incubations were either performed with a Bim peptide (which fits into the BH3-binding pocket of Bc12 family members), or PBS (thus retaining the monomeric confirmation). Hybridomas supernatants were subsequently incubated with the coated antigens and detected with HRP conjugated anti-mouse IgG. The reaction was developed with TMB substrate and stopped with sulphuric acid. Gluathione plate wells were scanned using a wavelength filter with an optical density of 450 nanometres (OD₄₅₀).

[2] = biological target: T2, bovine serum albumin (BSA) (bovine, UniProt P02769 25-607); assay: as above
T2 construct: Control antigen
T2 sequence (P02769 25-607 limits assumed): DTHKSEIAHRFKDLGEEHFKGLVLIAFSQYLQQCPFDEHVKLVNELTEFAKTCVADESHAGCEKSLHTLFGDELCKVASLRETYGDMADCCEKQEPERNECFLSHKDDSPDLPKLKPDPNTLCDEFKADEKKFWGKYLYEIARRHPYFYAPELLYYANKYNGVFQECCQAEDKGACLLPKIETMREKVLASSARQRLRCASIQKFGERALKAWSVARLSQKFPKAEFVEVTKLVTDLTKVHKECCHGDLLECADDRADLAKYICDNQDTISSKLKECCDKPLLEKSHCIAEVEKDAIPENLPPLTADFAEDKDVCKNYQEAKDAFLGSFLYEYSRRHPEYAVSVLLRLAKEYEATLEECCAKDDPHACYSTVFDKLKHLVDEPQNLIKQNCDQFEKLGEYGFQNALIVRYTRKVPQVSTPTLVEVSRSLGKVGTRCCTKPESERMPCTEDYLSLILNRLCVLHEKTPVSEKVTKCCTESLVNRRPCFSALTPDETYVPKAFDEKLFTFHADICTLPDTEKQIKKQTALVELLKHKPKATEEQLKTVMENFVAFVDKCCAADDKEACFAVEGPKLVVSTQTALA
Protocol: as §1

[3] = biological target: Bc12:BIM heterodimer (Homo sapiens, UniProt P10415); assay: ELISA reactivity with different Bc12 and Bc1_XL heterodimers; type: binding; conditions: FIG. 8
Sequence of Bc12:BIM heterodimer (P10415 whole entry): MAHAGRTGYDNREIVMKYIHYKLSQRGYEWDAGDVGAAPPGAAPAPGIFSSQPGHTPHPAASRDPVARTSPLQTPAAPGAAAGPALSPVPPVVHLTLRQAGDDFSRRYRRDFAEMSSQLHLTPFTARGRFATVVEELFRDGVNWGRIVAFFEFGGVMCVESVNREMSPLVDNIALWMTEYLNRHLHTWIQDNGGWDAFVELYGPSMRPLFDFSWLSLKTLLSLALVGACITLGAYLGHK
Sequence of Bc12:BIM heterodimer (O43521 whole entry partner): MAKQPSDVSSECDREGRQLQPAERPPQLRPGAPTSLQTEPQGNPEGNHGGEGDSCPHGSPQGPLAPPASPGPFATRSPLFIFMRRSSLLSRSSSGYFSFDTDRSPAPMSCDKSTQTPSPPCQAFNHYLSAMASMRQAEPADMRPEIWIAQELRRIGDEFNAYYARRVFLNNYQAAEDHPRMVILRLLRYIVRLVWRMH
From the text: (§2) All levels of reactivity are tabulated as percentage magnitudes of signal relative to those yielded with the Bc12:BIM heterodimer. […] 28A9 has low ABT199 cross-reactivity.

[4] = biological target: ABT199 in a heterodimer with Bc12 (Homo sapiens, UniProt P10415); assay: as above; type: binding; conditions: FIG. 8; signal relative to Bc12:BIM heterodimer
Sequence of ABT199 in a heterodimer with Bc12 (P10415 whole entry, one chain of several): as the sequence (P10415 whole entry) above
From the text: as §2

[5] = biological target: Bc12:Bim heterodimeric complex (Homo sapiens, UniProt P10415); assay: ELISA of hybridoma supernatants on glutathione plates coated with GST_Bc12 complexed with Bim peptide; type: binding; conditions: for antigen reactivity of hybridoma supernatants (OD450): FIG. 1, serially diluted supernatants, controls Bc1xL:Bim, Bc12 and Bc1xL monomers, BSA; for hybridoma supernatant reactivity among a more exhaustive range of antigens: FIG. 2, antigens include Mcl1 monomer and Mc11:Bim heterodimeric forms
Sequence of Bc12:Bim heterodimeric complex (P10415 whole entry, the tested form may be a part): as the sequence (P10415 whole entry) above
Sequence of Bc12:Bim heterodimeric complex (O43521 142-161 partner limits assumed): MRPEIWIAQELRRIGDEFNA
Protocol: This class of heterodimer specific Bc12:Bim reactive monoclonal antibodies are otherwise known as “HSB2B”. […] As controls, reactivity with Bc1xL:Bim, Bc12 and Bc1xL monomers, and bovine serum albumin (BSA) were also screened against. To adhere the Bc1xL and Bc12 to the plates, each was expressed as a recombinant fusion protein with GST at the N-terminus (i.e. GST_Bc12 and GST_Bc1xL). Once adhered to the plate, incubations were either performed with a Bim peptide (which fits into the BH3-binding pocket of Bc12 family members), or PBS (thus retaining the monomeric confirmation). Hybridomas supernatants were subsequently incubated with the coated antigens and detected with HRP conjugated anti-mouse IgG. The reaction was developed with TMB substrate and stopped with sulphuric acid. Gluathione plate wells were scanned using a wavelength filter with an optical density of 450 nanometres (OD450).
As a GST fusion protein (GST_Mc11), HSB2B hybridoma supernatant reactivity was tested against the Mc11 monomeric form, or the heterodimeric forms (created by, either, incubation of Bim peptide (as for FIG. 1), or by covalently linking the Bim peptide to the GST_Mc11). As for FIG. 1, the HSB2B mAbs show specific reactivity with the epitopes induced following the complexing of Bc12 with Bim.

[6] = biological target: T3, GST_Bc12 (Bc12 monomer) (human, UniProt P10415 1-218, limits assumed); assay: ELISA, serially diluted hybridoma supernatant on glutathione plates
T3 construct: also called Bcl2 monomer; not shown: GST (glutathione S-transferase) fused at the N-terminus
T3 sequence (P10415 1-218 limits assumed): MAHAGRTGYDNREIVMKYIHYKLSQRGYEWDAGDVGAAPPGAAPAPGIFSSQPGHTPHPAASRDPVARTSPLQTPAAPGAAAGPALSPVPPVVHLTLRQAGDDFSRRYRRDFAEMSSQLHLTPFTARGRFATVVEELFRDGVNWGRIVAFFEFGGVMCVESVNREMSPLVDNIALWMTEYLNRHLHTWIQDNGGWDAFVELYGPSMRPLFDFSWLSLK
Protocol: as §1

[7] = test system: breast cancer tissue; assay: IHC on FFPE breast cancer tissue; conditions: FIG. 6; biopsies of two breast cancer patients; three biopsy areas combined
From the text: The present anti-BC12/BINI antibodies are labelled “HSB2B” and a clone number (see Table A); “HSBXB” is an antibody against Bc1-x1/Bim and “HSMCB” is an antibody against MCL-1/BIM. Using an analogous staining method to that described in FIG. 5, serial sections of two different patients' breast cancer biopsies (“Breast Cancer Patient 1 & 2”) were stained at the same time, under the identical conditions for relative reactivity with HSB2B mAbs 2H3 and 10C10, HSMCB and HSBXB. Cytoplasmic staining levels of individual cells from three different biopsy areas for each patient biopsy were combined and plotted as dot/bar graphs. […] The acquisition of data following staining with different HSA classes is planned to be of clinical utility to determine the relative dependencies of different cancers on different Bc12 family members.

[8] = test system: small cell lung cancer tissue; assay: IHC on FFPE small cell lung cancer tissue; conditions: for cytoplasmic staining level (Mean Cytoplasmic OD) of tumor cells versus negative control: FIG. 4 (ii), four biopsy areas; for cytoplasmic staining level (Mean Cytoplasmic OD) of tumor cells versus negative control / cytoplasmic staining level of individual cells versus negative control: Mann Whitney ****p<0.001; for reactivity by IHC with small cell lung cancer tissue: FIG. 4, FFPE secondary (colon) tumor biopsy, anti-mouse IgG HRP, DAB; for cytoplasmic staining level of individual cells versus negative control: FIG. 5 (ii), three biopsy areas combined
From the text: Serial sections of a FFPE secondary (colon) tumor biopsy were stained with the HSB2B clones or, as a negative control, no primary antibody (“neg control”). Antibody binding was detected with anti-mouse IgG HRP and developed using a DAB substrate to yield a brown stain. Nuclei were counterstained blue with Hematoxylin. Four corresponding biopsy areas (A-D) were imaged per biopsy for analysis. FIG. 4 (i) is a panel of images showing the magnitude of staining with each HSB2B mAb for one of the four biopsy areas acquired for each stained biopsy. […] Cellular architecture (middle row) was then defined using HALO image analysis software (left hand color key, TIL=tumor infiltrating lymphocytes), most importantly to define the location of the tumor cells. […] (ii) Dot plot/bar chart showing the cytoplasmic staining levels (Mean Cytoplasmic OD) for each of the tumor cells for the four different biopsy areas. The dots represent cytoplasmic staining intensities for individual cells. Medians and interquartile ranges are plotted. (Mann Whitney) statistical comparisons of staining intensity were performed between cells from HSB2B stained tissue and negative (neg) control tissue for each of the four areas of biopsy. ****p<0.001.
The present anti-BC12/BIM antibodies are labelled “HSB2B” and a clone number (see Table A); “HSBXB” is an antibody against Bc1-x1/Bim and “HSMCB” is an antibody against MCL-1/BIM. […] FIG. 5 (ii) is cytoplasmic staining levels of individual cells from three different biopsy areas were combined and plotted as dot/bar graphs. The dots represent cytoplasmic staining intensities for individual cells. Medians and interquartile ranges are plotted. (Mann Whitney) statistical comparisons of staining intensity were performed between cells from HSA stained tissue and negative (neg) control tissue. **** p<0.001. […] The acquisition of data following staining with different HSA classes is planned to be of clinical utility to determine the relative dependencies of different cancers on different Bc12 family members.

[9] = biological target: Bc12:BAX heterodimers (Homo sapiens, UniProt P10415); assay: ELISA reactivity with different Bc12 and Bc1_XL heterodimers; type: binding; conditions: FIG. 8; signal relative to Bc12:BIM heterodimer
Sequence of Bc12:BAX heterodimers (P10415 whole entry): as the sequence (P10415 whole entry) above
Sequence of Bc12:BAX heterodimers (Q07812 whole entry partner): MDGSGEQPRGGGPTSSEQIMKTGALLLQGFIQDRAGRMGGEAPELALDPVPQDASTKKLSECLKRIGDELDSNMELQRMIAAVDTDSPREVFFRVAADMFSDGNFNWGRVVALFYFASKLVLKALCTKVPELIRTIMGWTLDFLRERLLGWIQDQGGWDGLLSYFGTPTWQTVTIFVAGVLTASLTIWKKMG
From the text: as §2

| Molecule | binding result [1] | binding result [2] | antigen reactivity of hybridoma supernatants (OD450) [5] | binding result [6] | cytoplasmic staining level of individual cells versus negative control [7] | cytoplasmic staining level (Mean Cytoplasmic OD) of tumor cells versus negative control [8] | reactivity by IHC with small cell lung cancer tissue [8] | cytoplasmic staining level of individual cells versus negative control [8] | cross-reactivity with Bc12:BAX heterodimer [9] | hybridoma supernatant reactivity among a more exhaustive range of antigens [5] | further results |
| --- | --- | --- | --- | --- | --- | --- | --- | --- | --- | --- | --- |
| B1 | no binding | no binding |  |  |  |  |  |  |  |  |  |
| B2 |  |  | specific for the Bc12:Bim heterodimeric complex |  |  |  |  |  |  |  | physiological heterodimer reactivity (selectivity) [3]: restricted to Bc12:BIM; ABT199 cross-reactivity [4]: low |
| B3 | no binding | no binding |  | no binding |  |  |  |  |  |  |  |
| B4 |  |  | specific for the Bc12:Bim heterodimeric complex |  | higher level of staining | higher level of cytoplasmic stain | can react with small cell lung cancer tissue | higher level of staining | cross-reactivity between Bc12:BIM and Bc12:BAX heterodimers | specific reactivity for the Bc12:Bim complex |  |
| B5 |  |  | specific for the Bc12:Bim heterodimeric complex |  | higher level of staining | higher level of cytoplasmic stain | can react with small cell lung cancer tissue | higher level of staining | cross-reactivity between Bc12:BIM and Bc12:BAX heterodimers | specific reactivity for the Bc12:Bim complex |  |
| B6 | no binding | no binding |  | no binding |  |  |  |  |  |  |  |
